Experimental data from PMC10339645, “Kinetic characterization of annotated glycolytic enzymes present in cellulose-fermenting Clostridium thermocellum suggests different metabolic roles” (Biotechnology for Biofuels and Bioproducts, 2023).
Values belong to the molecule of their own block, whether it stands above or below them.

Key:
PfkA [1] = molecular target: T1, PfkA (Acetivibrio thermocellus, UniProt A3DEW4); assay: coupled NADH oxidation at […] nm, relative activity; assay type: biochemical; conditions: inhibitor; GTP as phosphate donor; 2.5 mM MgCl2; NH4Cl; 55 °C
T1 construct: N-terminal His6 tag with ~4-kDa linker (pRSET-A, plasmid pAHCT1261), tag kept; codon-optimized, E. coli T7 Shuffle; ~40 kDa monomer

PfkB [2] = molecular target: T2, PfkB (Acetivibrio thermocellus, UniProt A3DCE8); assay: coupled NADP+ reduction at […] nm, relative activity; assay type: biochemical; conditions: inhibitor; GTP as phosphate donor 2.24 mM; fructose 2.24 mM; 55 °C
T2 construct: gene Cthe_0389; N-terminal His6 tag with ~4-kDa linker (pRSET-A, plasmid pAHCT0389), tag kept; codon-optimized, E. coli T7 Shuffle; ~40 kDa monomer

PfkB [3] = molecular target: T2, PfkB; assay: coupled NADP+ reduction at […] nm, relative activity; assay type: biochemical; conditions: inhibitor; fructose 2.24 mM, phosphate donor 2.24 mM; 55 °C
PfkA [4] = molecular target: T1, PfkA; assay: coupled NADH oxidation at […] nm, relative activity; assay type: biochemical; conditions: inhibitor; 2 mM F6P, 2 mM ATP or GTP; NH4Cl; 55 °C
purified protein [5] = substrate: Nc1ncnc2c1ncn2[C@@H]1O[C@H](COP(=O)(O)OP(=O)(O)OP(=O)(O)O)[C@@H](O)[C@H]1O; assay: purified protein; assay type: biochemical, Acetivibrio thermocellus
purified protein [6] = substrate: Nc1nc2c(ncn2[C@@H]2O[C@H](COP(=O)(O)OP(=O)(O)OP(=O)(O)O)[C@@H](O)[C@H]2O)c(=O)[nH]1; assay: purified protein; assay type: biochemical, Acetivibrio thermocellus
[7] = fructose 2 mM constant, 5 mM MgCl2, pH 7.5, 55 °C
[8] = F6P 2 mM constant, 5 mM MgCl2, 2 mM NH4Cl, pH 7.5, 55 °C, extrapolated beyond 2 mM ATP
[9] = F6P 2 mM constant, 5 mM MgCl2, 2 mM NH4Cl, pH 7.5, 55 °C

% relative activity at 0.05 mM (PfkA [1]): 21%
Molecule: O=P(O)(O)OP(=O)(O)O [PPi]

% relative activity at 2.24 mM (PfkB [2]): 38%
Molecule: Nc1ncnc2c1ncn2[C@@H]1O[C@H](COP(=O)(O)OP(=O)(O)O)[C@@H](O)[C@H]1O [ADP]

Molecule: OC[C@H]1OC(O)[C@H](O)[C@@H](O)[C@H]1O (stereo partly shown) [galactose]
relative activity at 2.24 mM (PfkB [3]): Galactose also caused a noticeable decrease in activity

Molecule: C=C(OP(=O)(O)O)C(=O)O [PEP]
relative activity at 2 mM (PfkA [4]): addition of PEP or PPi caused a decrease in the activity of PfkA

% relative activity at 2.24 mM (PfkB [2]): 38%
Molecule: Nc1ncnc2c1ncn2[C@@H]1O[C@H](COP(=O)(O)O)[C@@H](O)[C@H]1O [AMP]

B1: PfkB (Acetivibrio thermocellus ATCC 27405) (protein)
chain: MFDVVAVGELLIDFLPAGTNENGMPLFSSNPGGAPANVLAMLSKLGAKTAFIGKVGKDGFGQFLKATLDNAGIDTSNLLMSSSEMTTLAFVHLNEKGDRSFSFYRKHCADVSLDAGELDKDLLRTCHFLHFGAVSLTDEPSRTATLEAARIAKEAGAIISYDPNYRPALWSNEHEARKYMLKAVEYADLVKVSEEELWLLAESEDFSKGAHKLLAMGPSVVFVTCGEKGSYVFTGSCKANHCGYDVKVVDTTGAGDAFVGAMLWQLRGMSLEEISQICEQKWGELLAFSNAAGTIVATKKGAIPAMPDLDTINTFMRQFLEEK
notes: N-terminal His6 tag with ~4-kDa linker (pRSET-A, plasmid pAHCT0389), tag kept; codon-optimized, E. coli T7 Shuffle; ~40 kDa monomer
Km (purified protein [5]; [7]): 400 ± 100 µM
Vmax (purified protein [5]; [7]): 110 µmol/min/mg
Km (purified protein [6]; [7]): 200 ± 80 µM
Vmax (purified protein [6]; [7]): 124 µmol/min/mg

B2: PfkA (Acetivibrio thermocellus ATCC 27405) (protein)
chain: MSSVRTIGVLTSGGDAPGMNAAIRSVVRTGLYYGFKVLGIRKGFNGLINGDIEELTARSVGDIIHRGGTILQTARSPQFKTEEGLKKAMSMAKVFGIDALVVIGGDGSYRGARDISKLGLNVIGIPGTIDNDIGCTDYTIGFDTAMNTVQDAIDKIRDTAYSHERCSVLEVMGRHAGYIAVNVSISGGAEAVVLPEKPFDMDTDVIKPIIEGRNRGKKHYLVIVAEGGEGKAIEIAKEITEKTGIEARATILGHIQRGGSPTVYDRVMASQMGAKAVEVLMENKRNRVIVFKDNQIGDMDLEEALQVKKTISEDLIQLSKILAL
notes: N-terminal His6 tag with ~4-kDa linker (pRSET-A, plasmid pAHCT1261), tag kept; codon-optimized, E. coli T7 Shuffle; ~40 kDa monomer
Km (purified protein [5]; [8]): 2500 ± 960 µM
Vmax (purified protein [5]; [8]): 430 µmol/min/mg
Km (purified protein [6]; [9]): 200 ± 20 µM
Vmax (purified protein [6]; [9]): 282 µmol/min/mg
